Several values for one entry are separate records, joined by “and”; a condition that tells them apart may be missing. Identical values can stand only once. Like-named read-outs stand apart in the source and are kept apart here. Non-standard residues stand in square brackets, D forms with d. No end group written: not given here. pY = N[C@@H](Cc1ccc(OP(=O)(O)O)cc1)C(=O)O; pT = C[C@@H](OP(=O)(O)O)[C@H](N)C(=O)O
B4: L. longbeachae LeSH (natural protein)
chain: MEAMQKNELNSKIPIIFGLINSYQIHNLLEQHNAKTKESKAVFLIRDSSTYPGLLTISYYCQEQDIVKHIRFGLTDKGWKTAPKPPHEPLKSDSPEIKEKYTLDKIKFERKMKQFINTAKKLFEQHIRAESFKTLIMELKIHEFNLEGLIKPTRSQASQEKHFTDYV

Key:
Assay in all cases: FP
[1] = molecular target: wild-type Src SH2 domain (UniProt P12931 151-248)
[2] = molecular target: B4
[3] = molecular target: L. pneumophila RavO SH2 domain (Gly212-Asp406) (Legionella pneumophila, UniProt Q5ZWF6 212-406)
[4] = molecular target: T1, L. dumoffii LeSH1a (Legionella dumoffii)
[5] = molecular target: L. dumoffii LeSH2 (Legionella dumoffii)
[6] = molecular target: L. anisa LeSH2b (Lani_WP_019234638) (Legionella anisa)
[7] = molecular target: L. pneumophila LeSH2
[8] = molecular target: L. waltersii LeSH5 tandem SH2
[9] = molecular target: L. pneumophila DoSH C-SH2
[10] = molecular target: L. anisa LeSH1b (Lani_2495) (Legionella anisa)
[11] = molecular target: T1, L. dumoffii LeSH1a; remark: listed apart in the source
[12] = molecular target: Shc1-pTyr239
[13] = molecular target: MidT-pTyr324
[14] = molecular target: VCP-pTyr805-tail7
[15] = molecular target: Shc1-pTyr239; remark: listed apart in the source
[16] = molecular target: EGFR-pTyr1086
[17] = molecular target: Shc1-pTyr317
[18] = molecular target: DnaJ-A1-pTyr381 ∆C peptide (human, UniProt P31689)
[19] = molecular target: Src SH2 TrM (superbinder)
[20] = molecular target: L. longbeachae LUSH SH2 domain (Ser3-Ser171) (Legionella longbeachae)
[21] = molecular target: Src SH2 TrM (superbinder); remark: listed apart in the source

B1: IL2Rβ pTyr387 peptide (fluorescein-labelled) (peptide)
chain: YFTYDPYSEEDPD
modifications: not fully specified (N-terminus); also: pTyr387, position not given here, fluorescein-labelled
For B1, the Kd [1] was 4.13 µM, the Kd [2] was 0.91 µM and 0.9 µM and the Kd [3] was 7.57 µM and 7.6 µM. For the same binder, the Kd [4] was over 50 µM, the Kd [5] was 2.94 µM and the Kd [6] was 4 µM. It also gave a Kd [7] of 1.71 µM, a Kd [8] of 18 µM and a Kd [9] of 23 µM. It also gave a Kd [10] of over 50 µM.

B2: Shc1 pTyr317 peptide (acetyl-DPSpYVNVQNL-amide) (peptide)
peptide: Ac-DPS[pY]VNVQNL-NH2
SMILES: CC(=O)N[C@@H](CC(=O)O)C(=O)N1CCC[C@H]1C(=O)N[C@@H](CO)C(=O)N[C@@H](Cc1ccc(OP(=O)(O)O)cc1)C(=O)N[C@H](C(=O)N[C@@H](CC(N)=O)C(=O)N[C@H](C(=O)N[C@@H](CCC(N)=O)C(=O)N[C@@H](CC(N)=O)C(=O)N[C@@H](CC(C)C)C(N)=O)C(C)C)C(C)C
B2 was tested, and the Kd [2] was 6.7 µM, the Kd [3] was 1.1 µM and the Kd [11] was over 50 µM.

B3: DnaJ-A1 pTyr381 peptide (fluorescein-labelled) (peptide)
chain: HYNGEAYEDDEHH
modifications: not fully specified (N-terminus); also: pTyr381, position not given here, fluorescein-labelled
For B3, the Kd [2] was 0.5 µM and 0.53 µM, the Kd [3] was 19.2 µM and the Kd [4] was over 50 µM. For the same binder, the Kd [6] was 18.7 µM, the Kd [8] was 29.2 µM and the Kd [9] was over 50 µM. The Kd [10] was over 50 µM.

B4 was tested, and the Kd [12] was 7.1 µM, the Kd [13] was 3.7 µM and the Kd [14] was 2.2 µM. The Kd [15] was 7.15 µM, the Kd [16] was 20.4 µM and the Kd [17] was 6.71 µM. The Kd [18] was 2.75 µM.

For GG[pY]GG [mini peptide GGpYGG], the Kd [6] was 35.2 µM and the Kd [19] was 1.5 µM.

In the case of YG [pY-G dipeptide (VCP peptide)], the Kd [20] is reported as 0.81 µM, the Kd [2] is reported as 0.99 µM and 1 µM and the Kd [4] is reported as over 50 µM. For the same binder, the Kd [21] was 1.79 µM and the Kd [5] was 7.43 µM.

GG[pT]GG [pThr-containing version of GGpYGG] gave a Kd [20] of over 50 µM, a Kd [2] of over 50 µM and a Kd [3] of over 50 µM. For the same binder, the Kd [4] was over 50 µM, the Kd [5] was over 50 µM and the Kd [19] was over 50 µM.
